From patent publication US20020147170A1 (priority 2000, published 2002)
Where a chain is given by its changes, count along the chain named.

Legend:
[1] = target: Asn150Ala mutant rat mu opioid receptor (rat) (UniProt P33535); assay: cell-based or functional assay
[2] = target: wild-type rat mu opioid receptor (rat); assay: cell-based or functional assay
[3] = test system: rat mu opioid receptor; assay: SRE-Luc/Gq5i luciferase reporter assay in HEK293 cells; type: cell-based; details: SRE + Gq5i, HEK293 cells
Excerpt: A positive assay for Gαi coupling (i.e., one that yields an increase in luciferase activity upon receptor activation, instead of a negative assay, one that yields a decrease in luciferase activity upon receptor activation), provides a detectable output signal and less interassay variation. It was hypothesized that Gαi coupling could be detected by altering the signaling pathway generated by Gαi coupled receptors. A chimeric G protein (Gqi5, Broach and Thorner, Nature 384 (Suppl.): 14-16 (1996)) that contains the entire Gαq protein having five C-terminal amino acids from Gαi attached to the C-terminus of Gαq has been generated. This chimeric G protein is recognized as Gαi by Gαi coupled receptors, but switches the receptor induced signaling from Gαi to Gαq. This allows Gαi receptor coupling to be detected using a positive assay by use of the Gαq responsive SMS-Luc or SRE-Luc construct (Stratagene, La Jolla, Calif.). SMS and SRE preferably respond to Gαq mediated inositol and calcium production. Moreover, detection can be carried out in the absence of forskolin pre-stimulation of cells.
Reagents & Solutions: The cell culture media used in the assays described below was Gibco BRL #12100-046. This media was made according to manufacturer's recipe, pH adjusted to 7.2, filtered (0.22 micron pore), and supplemented with 1% Pen/Strep (Gibco #15140-122; 100% penicillin G 10,000 units/ml, and streptomycin 10,000 μg/ml) and 10% fetal bovine serum. Cell culture media lacking 10% fetal bovine serum was also generated. DNA used in the transfection experiments was purified and quantitated by measuring the absorbance at OD260. A LucLite Luciferase Assay Kit (Packard) was used to quantitate luciferase activity. Transfections were carried out using LipofectAMINE Reagent (Gibco #18324-012).
The rat mu opioid receptor is a Gαi coupled receptor. Therefore we chose to use the Gq5i reporter system, described in detail above (Broach and Thorner, supra), which switches the signaling pathway from Gαi to Gαq for reliable positive readout. HEK293 cells were transfected with the reporter construct SRE-Luc, an expression vector containing nucleic acid encoding Gq5i (Broach and Thorner, supra), and an expression vector containing nucleic acid encoding either the wild-type or the Asn150Ala mutant rat mu opioid receptor. Basal and ligand-stimulated luciferase activity was measured. The ligand used in this assay was [D—Ala^2—MePhe^4, Gly-ol^5]enkephalin] (DAMGO). As a negative control, HEK293 cells were transfected with pcDNA1 (empty vector DNA), SRE-Luc, and the expression vector containing nucleic acid encoding Gq5i (Broach and Thorner, supra).
The luciferase assay was carried out as follows. On day 1, HEK293 cells in a T75 flask were washed with 15 ml serum-free media (or PBS), trypsinized with 5 ml 0.05% trypsin-EDTA (Gibco #25300-062), incubated at 37° C. for 3 minutes at which time 6-7 ml complete HEK293 media (Gibco #12100-046) and 10% Fetal Bovine Serum (Intergen #1050-90) were added. Thereafter, cells were collected in 50 ml centrifuge tubes, pelleted at 800-900 rpm (RCF˜275), and resuspend in 20 ml complete media. The cells were counted using a haemocytometer and diluted to 85,000 cells/ml in complete media. Using a repeat pipettor or cell plater, 100 μl of cells were added to each well of a Primaria 96-well plate (Falcon #353872). Cells were then incubated at 37° C., 5% CO2 until use at 48 hours.
On day 3, cells were transfected using LipofectAMINE™ according to the manufacturer's protocol (Gibco #18324-012, Rockville, Md.).
On day 4, cells were stimulated as follows. Ligands for the receptor, either DAMGO or a non-peptide ligand (e.g., naloxone or naltrexone), were diluted to a desired concentration in serum-free media containing 0.15 mM PMSF (or other protease inhibitor(s)). […]

[4] = test system: α1 adrenergic receptor; details: cited from earlier work
[5] = test system: PTH receptor; details: COS-7 cells; cited from earlier work

## [D-Ala^2-MePhe^4, Gly-ol^5]enkephalin (peptide)
[1]
  Average Ligand Stimulated Activity (Light Emission) (light emission): 87000
[2]
  Average Ligand Stimulated Activity (Light Emission) (light emission): 87500

B1: wild-type rat mu opioid receptor: wild-type rat mu opioid receptor expressed from an expression vector, comparator (protein, UniProt P33535 1-398, looked up)
Mu-type opioid receptor: MDSSTGPGNTSDCSDPLAQASCSPAPGSWLNLSHVDGNQSDPCGLNRTGLGGNDSLCPQTGSPSMVTAITIMALYSIVCVVGLFGNFLVMYVIVRYTKMKTATNIYIFNLALADALATSTLPFQSVNYLMGTWPFGTILCKIVISIDYYNMFTSIFTLCTMSVDRYIAVCHPVKALDFRTPRNAKIVNVCNWILSSAIGLPVMFMATTKYRQGSIDCTLTFSHPTWYWENLLKICVFIFAFIMPVLIITVCYGLMILRLKSVRMLSGSKEKDRNLRRITRMVLVVVAVFIVCWTPIHIYVIIKALITIPETTFQTVSWHFCIALGYTNSCLNPVLYAFLDENFKRCFREFCIPTSSTIEQQNSTRVRQNTREHPSTANTVDRTNHQLENLEAETAPLP
[3]; ligand DAMGO
  Average Ligand Stimulated Activity (Light Emission): 87,461
[3]; no ligand
  Average Basal Activity (Light Emission): 8,436

B2: Asp142Ala mutant: α1 adrenergic receptor DRY motif mutant (protein, UniProt P18841 1-515, looked up, variant D142A)
Alpha-1B adrenergic receptor: MNPDLDTGHNTSAPAQWGELKDANFTGPNQTSSNSTLPQLDVTRAISVGLVLGAFILFAIVGNILVILSVACNRHLRTPTNYFIVNLAIADLLLSFTVLPFSATLEVLGYWVLGRIFCDIWAAVDVLCCTASILSLCAISIARYIGVRYSLQYPTLVTRRKAILALLSVWVLSTVISIGPLLGWKEPAPNDDKECGVTEEPFYALFSSLGSFYIPLAVILVMYCRVYIVAKRTTKNLEAGVMKEMSNSKELTLRIHSKNFHEDTLSSTKAKGHNPRSSIAVKLFKFSREKKAAKTLGIVVGMFILCWLPFFIALPLGSLFSTLKPPDAVFKVVFWLGYFNSCLNPIIYPCSSKEFKRAFMRILGCQCRSGRRRRRRRRLGACAYTYRPWTRGGSLERSQSRKDSLDDSGSCMSGSQRTLPSASPSPGYLGRGAQPPLELCAYPEWKSGALLSLPEPPGRRGRLDSGPLFTFKLLGEPESPGTEGDASNGGCDATTDLANGQPGFKSNMPLAPGHF
[4]
  constitutive activity: constitutively active

B3: Asn63Ala mutant: α1 adrenergic receptor mutant at conserved Asn63 (protein, UniProt P18841 1-515, looked up, variant N63A)
Alpha-1B adrenergic receptor: B2 Alpha-1B adrenergic receptor with N63A, A142D
[4]
  constitutive activity: constitutively active

B4: Cys128Phe mutant: α1 adrenergic receptor mutant in transmembrane domain III (protein, UniProt P18841 1-515, looked up, variant C128F)
Alpha-1B adrenergic receptor: B2 Alpha-1B adrenergic receptor with C128F, A142D
[4]
  constitutive activity: constitutively active

B5: Arg143Lys mutant: α1 adrenergic receptor DRY motif mutant (protein, UniProt P18841 1-515, looked up, variant R143K)
Alpha-1B adrenergic receptor: B2 Alpha-1B adrenergic receptor with A142D, R143K
[4]
  constitutive activity: constitutively active

B6: Ala293Glu mutant: α1 adrenergic receptor mutant at carboxyl end of IC3 (protein, UniProt P18841 1-515, looked up, variant A293E)
Alpha-1B adrenergic receptor: B2 Alpha-1B adrenergic receptor with A142D, A293E
[4]
  constitutive activity: constitutively active

B7: Ala204Val mutant: α1 adrenergic receptor mutant in transmembrane domain V (protein, UniProt P18841 1-515, looked up, variant A204V)
Alpha-1B adrenergic receptor: B2 Alpha-1B adrenergic receptor with A142D, A204V
[4]
  constitutive activity: constitutively active

B8: His223Arg: polymorphic constitutively active PTH receptor mutant from Jansen's metaphyseal chondrodysplasia patients (protein, UniProt Q03431 27-593, looked up, variant H223R)
Parathyroid …: DADDVMTKEEQIFLLHRAQAQCEKRLKEVLQRPASIMESDKGWTSASTSGKPRKDKASGKLYPESEEDKEAPTGSRYRGRPCLPEWDHILCWPLGAPGEVVAVPCPDYIYDFNHKGHAYRRCDRNGSWELVPGHNRTWANYSECVKFLTNETREREVFDRLGMIYTVGYSVSLASLTVAVLILAYFRRLHCTRNYIRMHLFLSFMLRAVSIFVKDAVLYSGATLDEAERLTEEELRAIAQAPPPPATAAAGYAGCRVAVTFFLYFLATNYYWILVEGLYLHSLIFMAFFSEKKYLWGFTVFGWGLPAVFVAVWVSVRATLANTGCWDLSSGNKKWIIQVPILASIVLNFILFINIVRVLATKLRETNAGRCDTRQQYRKLLKSTLVLMPLFGVHYIVFMATPYTEVSGTLWQVQMHYEMLFNSFQGFFVAIIYCFCNGEVQAEIKKSWSRWTLALDFKRKARSGSSSYSYGPMVSHTSVTNVGPRVGLGLPLSPRLLPTATTNGHPQLPGHAKPGTPALETLETTPPAMAAPKDDGFLNGSCSGLDEEASGPERPPALLQEEWETVM
[5]
  basal cyclic AMP accumulation vs cells expressing wild-type receptors: four to six times higher

B9: Thr410Pro: polymorphic constitutively active PTH receptor missense mutant (protein, UniProt Q03431 27-593, looked up, variant T410P)
Parathyroid …: B8 Parathyroid … with R197H, T384P
[5]
  basal cyclic AMP accumulation vs cells expressing wild-type receptors: four to six times higher
